Assay results taken from publication PMC6520340, “Development of a ribonuclease containing a G4-specific binding motif for programmable RNA cleavage”.

Molecular target: RNase HI catalytic domain (wild-type) (Bacillus halodurans, UniProt Q9KEI9 59-196)
Assay: EMSA; 10 uM DNA, 50 uM protein; 100 mM K+; Native 10% PAGE in 1X TBE, 20 mM potassium phosphate, 100 mM KCl, pH 7.0; UV shadowing; temperature not stated
Conditions: protein: recombinant

Sequence of RNase HI catalytic domain (wild-type) (Q9KEI9 59-196): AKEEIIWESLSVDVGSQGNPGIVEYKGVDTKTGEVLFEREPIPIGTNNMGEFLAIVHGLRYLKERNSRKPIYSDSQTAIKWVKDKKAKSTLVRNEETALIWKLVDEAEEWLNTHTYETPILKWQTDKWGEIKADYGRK

Binder	binding result (parallel G4 with 3' single-stranded tail)	binding result (single strand)
TTGGGTGGGTGGGTGGGTTCAACGACGACGGCATCATC (structured_DNA) [B1]	no binding	
TTGACTAAGTGCCTTAGTTCAACGACGACGGCATCATC (ssDNA) [B0]		no binding
